# Experimental data published in patent US20130209454A1.
# Assays:
# Assay in all cases: cell-based or functional assay
# [1] = molecular target: HIV-1 Env of strain 191084 B7-19 (HIV-1)
# [2] = molecular target: HIV-1 Env of strain 191955_A11 (HIV-1)
# [3] = molecular target: HIV-1 Env of strain 235-47 (HIV-1)
# [4] = molecular target: HIV-1 Env of strain 249M B10 (HIV-1)
# [5] = molecular target: HIV-1 Env of strain 3365.v2.c2 (HIV-1)
# [6] = molecular target: HIV-1 Env of strain 6244_13_B5_4576 (HIV-1)
# [7] = molecular target: HIV-1 Env of strain 6540.v4.c1 (HIV-1)
# [8] = molecular target: HIV-1 Env of strain 9004SS_A3_4 (HIV-1)
# [9] = molecular target: HIV-1 Env of strain BJOX010000.06.2 (HIV-1)
# [10] = molecular target: HIV-1 Env of strain BJOX025000.01.1 (HIV-1)
# [11] = molecular target: HIV-1 Env of strain CNE8 (HIV-1)
# [12] = molecular target: HIV-1 Env of strain Ce1172_H1 (HIV-1)
# [13] = molecular target: HIV-1 Env of strain Ce704809221_1B3 (HIV-1)
# [14] = molecular target: HIV-1 Env of strain HIV-0013095-2.11 (HIV-1)
# [15] = molecular target: HIV-1 Env of strain MS208.A1 (HIV-1)
# [16] = molecular target: HIV-1 Env of strain TRJO4551.58 (HIV-1)
# [17] = molecular target: Env of HIV-1 strain 0260.v5.c36 (HIV-1)
# [18] = molecular target: Env of HIV-1 strain 1006_11_C3_1601 (HIV-1)
# [19] = molecular target: Env of HIV-1 strain 3103.v3.c10 (HIV-1)
# [20] = molecular target: Env of HIV-1 strain 62357_14_D3_4589 (HIV-1)
# [21] = molecular target: Env of HIV-1 strain 6480.v4.c25 (HIV-1)
# [22] = molecular target: Env of HIV-1 strain 6811.v7.c18 (HIV-1)
# [23] = molecular target: Env of HIV-1 strain A07412M1.vrc12 (HIV-1)
# [24] = molecular target: Env of HIV-1 strain AC10.0.29 (HIV-1)
# [25] = molecular target: Env of HIV-1 strain BJOX010000.06.2 (HIV-1)
# [26] = molecular target: Env of HIV-1 strain BJOX025000.01.1 (HIV-1)
# [27] = molecular target: Env of HIV-1 strain C1080.c03 (HIV-1)
# [28] = molecular target: Env of HIV-1 strain C2101.c01 (HIV-1)
# [29] = molecular target: Env of HIV-1 strain CAAN5342.A2 (HIV-1)
# [30] = molecular target: Env of HIV-1 strain CAP210.2.00.E8 (HIV-1)
# [31] = molecular target: Env of HIV-1 strain CNE5 (HIV-1)
# [32] = molecular target: Env of HIV-1 strain Ce0393_C3 (HIV-1)
# [33] = molecular target: Env of HIV-1 strain Ce1086_B2 (HIV-1)
# [34] = molecular target: Env of HIV-1 strain Ce1172_H1 (HIV-1)
# [35] = molecular target: Env of HIV-1 strain Ce703010054_2A2 (HIV-1)
# [36] = molecular target: Env of HIV-1 strain Du172.17 (HIV-1)
# [37] = molecular target: Env of HIV-1 strain HIV-001428-2.42 (HIV-1)
# [38] = molecular target: Env of HIV-1 strain MS208.A1 (HIV-1)
# [39] = molecular target: Env of HIV-1 strain QH0692.42 (HIV-1)
# [40] = molecular target: Env of HIV-1 strain SC422661.8 (HIV-1)
# [41] = molecular target: Env of HIV-1 strain T251-18 (HIV-1)
# [42] = molecular target: Env of HIV-1 strain T278-50 (HIV-1)
# [43] = molecular target: Env of HIV-1 strain THRO4156.18 (HIV-1)
# [44] = molecular target: Env of HIV-1 strain TRO.11 (HIV-1)
# [45] = molecular target: Env of HIV-1 strain WEAU_d15_410_787 (HIV-1)
# [46] = molecular target: Env of HIV-1 strain X1193_c1 (HIV-1)
# [47] = molecular target: Env of HIV-1 strain X1254_c3 (HIV-1)
# [48] = molecular target: Env of HIV-1 strain ZM135M.PL10a (HIV-1)
# [49] = molecular target: Env of HIV-1 strain ZM197M.PB7 (HIV-1)
# [50] = molecular target: Env of HIV-1 strain ZM247v1(Rev-) (HIV-1)
binder,measurement,setting,value
"NIH45-46^G54W(HC), S28Y(LC) (antibody, V domains shown) VH: QVRLSQSGGQMKKPGESMRLSCRASGYEFLNCPINWIRLAPGRRPEWMGWLKPRWGAVNYARKFQGRVTMTRDVYSDTAFLELRSLTSDDTAVYFCTRGKYCTARDYYNWDFEHWGRGAPVTVSS VL: EIVLTQSPATLSLSPGETAIISCRTSQYGSLAWYQQRPGQAPRLVIYSGSTRAAGIPDRFSGSRWGADYNLSISNLESGDFGVYYCQQYEFFGQGTKVQVDI","IC50, pseudovirus neutralization",[1],0.001 µg/mL
same,"IC50, pseudovirus neutralization",[2],0.013 µg/mL
same,"IC50, pseudovirus neutralization",[3],0.001 µg/mL
same,"IC50, pseudovirus neutralization",[4],0.001 µg/mL
same,"IC50, pseudovirus neutralization",[5],0.014 µg/mL
same,"IC50, pseudovirus neutralization",[6],0.03 µg/mL
same,"IC50, pseudovirus neutralization",[7],> 50 µg/mL
same,"IC50, pseudovirus neutralization",[8],0.046 µg/mL
same,"IC50, pseudovirus neutralization",[9],1.38 µg/mL
same,"IC50, pseudovirus neutralization",[10],0.031 µg/mL
same,"IC50, pseudovirus neutralization",[11],0.038 µg/mL
same,"IC50, pseudovirus neutralization",[12],> 50 µg/mL
same,"IC50, pseudovirus neutralization",[13],0.101 µg/mL
same,"IC50, pseudovirus neutralization",[14],0.002 µg/mL
same,"IC50, pseudovirus neutralization",[15],0.022 µg/mL
same,"IC50, pseudovirus neutralization",[16],0.004 µg/mL
"NIH45-46^G54W (antibody, V domains shown) VH: QVRLSQSGGQMKKPGESMRLSCRASGYEFLNCPINWIRLAPGRRPEWMGWLKPRWGAVNYARKFQGRVTMTRDVYSDTAFLELRSLTSDDTAVYFCTRGKYCTARDYYNWDFEHWGRGAPVTVSS VL: EIVLTQSPATLSLSPGETAIISCRTSQSGSLAWYQQRPGQAPRLVIYSGSTRAAGIPDRFSGSRWGADYNLSISNLESGDFGVYYCQQYEFFGQGTKVQVDI",IC80,[17],0.399 µg/mL
same,IC80,[18],0.008 µg/mL
same,IC80,[19],0.56 µg/mL
same,IC80,[20],0.07 µg/mL
same,IC80,[21],0.021 µg/mL
same,IC80,[22],0.033 µg/mL
same,IC80,[23],0.042 µg/mL
same,IC80,[24],0.63 µg/mL
same,IC80,[25],4.5 µg/mL
same,IC80,[26],0.135 µg/mL
same,IC80,[27],0.91 µg/mL
same,IC80,[28],0.17 µg/mL
same,IC80,[29],0.21 µg/mL
same,IC80,[30],> 50 µg/mL
same,IC80,[31],0.116 µg/mL
same,IC80,[32],0.089 µg/mL
same,IC80,[33],0.091 µg/mL
same,IC80,[34],> 50 µg/mL
same,IC80,[35],0.077 µg/mL
same,IC80,[36],42.9 µg/mL
same,IC80,[37],0.001 µg/mL
same,IC80,[38],0.17 µg/mL
same,IC80,[39],1.12 µg/mL
same,IC80,[40],0.07 µg/mL
same,IC80,[41],0.92 µg/mL
same,IC80,[42],> 50 µg/mL
same,IC80,[43],1.81 µg/mL
same,IC80,[44],0.13 µg/mL
same,IC80,[45],0.003 µg/mL
same,IC80,[46],0.009 µg/mL
same,IC80,[47],0.018 µg/mL
same,IC80,[48],0.16 µg/mL
same,IC80,[49],0.18 µg/mL
same,IC80,[50],2.6 µg/mL
same,"IC50, pseudovirus neutralization",[1],0.001 µg/mL
same,"IC50, pseudovirus neutralization",[2],0.015 µg/mL
same,"IC50, pseudovirus neutralization",[3],0.001 µg/mL
same,"IC50, pseudovirus neutralization",[4],0.001 µg/mL
same,"IC50, pseudovirus neutralization",[5],0.01 µg/mL
same,"IC50, pseudovirus neutralization",[6],0.005 µg/mL
same,"IC50, pseudovirus neutralization",[7],> 50 µg/mL
same,"IC50, pseudovirus neutralization",[8],0.054 µg/mL
same,"IC50, pseudovirus neutralization",[9],0.769 µg/mL
same,"IC50, pseudovirus neutralization",[10],0.014 µg/mL
same,"IC50, pseudovirus neutralization",[11],0.055 µg/mL
same,"IC50, pseudovirus neutralization",[12],> 50 µg/mL
same,"IC50, pseudovirus neutralization",[13],0.007 µg/mL
same,"IC50, pseudovirus neutralization",[14],0.005 µg/mL
same,"IC50, pseudovirus neutralization",[15],0.031 µg/mL
same,"IC50, pseudovirus neutralization",[16],0.01 µg/mL
"NIH45-46^G54W(HC) S28Y(LC) (antibody, V domains shown) VH: QVRLSQSGGQMKKPGESMRLSCRASGYEFLNCPINWIRLAPGRRPEWMGWLKPRWGAVNYARKFQGRVTMTRDVYSDTAFLELRSLTSDDTAVYFCTRGKYCTARDYYNWDFEHWGRGAPVTVSS VL: EIVLTQSPATLSLSPGETAIISCRTSQYGSLAWYQQRPGQAPRLVIYSGSTRAAGIPDRFSGSRWGADYNLSISNLESGDFGVYYCQQYEFFGQGTKVQVDI",IC80,[17],0.084 µg/mL
same,IC80,[18],0.037 µg/mL
same,IC80,[19],0.594 µg/mL
same,IC80,[20],0.084 µg/mL
same,IC80,[21],0.058 µg/mL
same,IC80,[22],0.11 µg/mL
same,IC80,[23],0.064 µg/mL
same,IC80,[24],0.554 µg/mL
same,IC80,[25],5.04 µg/mL
same,IC80,[26],0.211 µg/mL
same,IC80,[27],0.589 µg/mL
same,IC80,[28],0.169 µg/mL
same,IC80,[29],0.299 µg/mL
same,IC80,[30],9.05 µg/mL
same,IC80,[31],0.137 µg/mL
same,IC80,[32],0.151 µg/mL
same,IC80,[33],0.042 µg/mL
same,IC80,[34],> 50 µg/mL
same,IC80,[35],0.051 µg/mL
same,IC80,[36],0.125 µg/mL
same,IC80,[37],0.002 µg/mL
same,IC80,[38],0.089 µg/mL
same,IC80,[39],0.622 µg/mL
same,IC80,[40],0.09 µg/mL
same,IC80,[41],1.43 µg/mL
same,IC80,[42],> 50 µg/mL
same,IC80,[43],2.74 µg/mL
same,IC80,[44],0.079 µg/mL
same,IC80,[45],0.027 µg/mL
same,IC80,[46],0.054 µg/mL
same,IC80,[47],0.03 µg/mL
same,IC80,[48],0.163 µg/mL
same,IC80,[49],0.274 µg/mL
same,IC80,[50],0.034 µg/mL
